# Laboratory results taken from publication PMC6444592, “Citrullination of HP1γ chromodomain affects association with chromatin” (Epigenetics & Chromatin, 2019).
# Biological target: H3K9me3(1–16) peptide
substance,measurement,value
"GST-HP1γWT (recombinant full-length mouse heterochromatin protein 1 gamma, wild type) (from UniProt P23198 1-183) (natural protein)",HP1γ citrullination by PADI4 in the in vitro citrullination assay with added H3K9me3 peptides (immunoblot with anti-peptidyl-citrulline antibody; fold change against unmethylated H3 peptide),2 fold
